Assay results reported in PMC9968290.

Experiments:
[1] = biological target: C-terminally truncated zebrafish ortholog of the TREK1 channel (drTREK1), residues 1-322, N95Q, N122Q (D. rerio (zebrafish)); assay: native MS; TREK1 in 200 mM ammonium acetate pH 8, 0.25 mM DDM, without lipid or with 0.1 mg/ml POPA or 0.025 mg/ml POPE; static nanospray on a Q-Exactive EMR
[2] = biological target: C-terminally truncated zebrafish ortholog of the TREK1 channel (drTREK1), residues 1-322, N95Q, N122Q (D. rerio (zebrafish)); assay: cryo-EM structure; single particle cryo-EM of purified TREK1 at 3 mg/ml in DDM micelles (150 mM KCl, 20 mM Tris pH 8.0), without lipid or with POPA or POPE mixed micelles

## C-terminally truncated zebrafish ortholog of the TREK1 channel (drTREK1), residues 1-322, N95Q, N122Q (natural protein)
[1]
  stoichiometry N: 2
[2]
  stoichiometry N: 2
